From publication PMC11451537, “P2X7 receptors exhibit at least three modes of allosteric antagonism” (Science Advances, 2024)

Molecular target: the molecule itself
Experiment: cryo-EM structure; purified rP2X7 in 20 mM Hepes pH 7.0, 100 mM NaCl, 0.5 mM C12M (DDM), incubated 1 hour with small-molecule antagonist (about 200 to 400 uM); six antagonist-bound structures at 2.2 to 2.7 A

B1: full-length, wild-type rat P2X7 receptor (receptor, UniProt Q64663 1-595, looked up)
chain: MPACCSWNDVFQYETNKVTRIQSVNYGTIKWILHMTVFSYVSFALMSDKLYQRKEPLISSVHTKVKGVAEVTENVTEGGVTKLVHGIFDTADYTLPLQGNSFFVMTNYLKSEGQEQKLCPEYPSRGKQCHSDQGCIKGWMDPQSKGIQTGRCIPYDQKRKTCEIFAWCPAEEGKEAPRPALLRSAENFTVLIKNNIDFPGHNYTTRNILPGMNISCTFHKTWNPQCPIFRLGDIFQEIGENFTEVAVQGGIMGIEIYWDCNLDSWSHRCQPKYSFRRLDDKYTNESLFPGYNFRYAKYYKENGMEKRTLIKAFGVRFDILVFGTGGKFDIIQLVVYIGSTLSYFGLATVCIDLIINTYASTCCRSRVYPSCKCCEPCAVNEYYYRKKCEPIVEPKPTLKYVSFVDEPHIWMVDQQLLGKSLQDVKGQEVPRPQTDFLELSRLSLSLHHSPPIPGQPEEMQLLQIEAVPRSRDSPDWCQCGNCLPSQLPENRRALEELCCRRKPGQCITTSELFSKIVLSREALQLLLLYQEPLLALEGEAINSKLRHCAYRSYATWRFVSQDMADFAILPSCCRWKIRKEFPKTQGQYSGFKYPY
notes: P2X7 receptor (P2X purinoceptor 7), rat; also called rP2X7; source: HEK293 GNTI- cells, BacMam baculovirus transduction; purified (DDM/CHS solubilisation, TALON resin, HRV 3C digestion, Superdex 200 SEC)
stoichiometry N: 3
